Results as given in the DeepSol protein solubility set.

Test: soluble on expression in E. coli; label from the status in PepcDB or PDB records

Row | Sequence | soluble on expression in E. coli
1 | MFEALKEVLGEINSKLAAVNNELSSKIMSENIVSTRPVAQAQYCGPYKLEKTLGKGQTGLVKTGTHCITGRKVAIKIVNKEKLSESVLQKVEREIAIMKLIEHPHVLHLYDVYENKKYLYLLLEHVSGGELFDYLVRKGRLMSKEARKFFRQIISALDFCHAHNICHRDLKPENLLLDERNNIKVADFGMASLQVEGSMLETSCGSPHYACPEVIRGEKYDGRKADVWSCGVILYALLVGALPFDDDNLRNLLEKVKRGVFHIPHFVPADVQSLLRAMIEVDPGKRYSLADVFKHPWVSGTTKADPELELPMSQVVQTHVIPGEDSIDPDVLRHMNCLGCFKDKQKLINELLSPKHNTEKMVYFLLLDRKRRRPAQEDDTEIVLRGAAQNNDPPKKRTDSSRTSRYPMGSIADGSPINPRKTYGRNQKSGRHSSLGGSPTESPRSSTRDLFGSSSSGSYSARAGEDRDRGRSASRSTNSYHYYTQPVDPQTLAEAARHVRDAQERRESRDSGRGSSRKESKDRSDKSASSSSCKNDASSTSSVPHKYSPPSVMSESVVVSSSTMNSTNSSTNSLIAGNSQTSIGSTSGPWRSKLNNIKNSFLGTPRFHRRKMSNGTAESDSEDSQMIDTTDLVKKSWFGSLASSMSVERDDTHCVPVQGKTLNSIKAELIRAFLQIHELSHSVVGQNCFRVEYKRGPTVGGSVFSRGIKMNVDIIPSPQQVVIAGETPTYVVQFVLLAGPVRRFKRLVEHLSAILQNSTQQRADRQQQAALMVRPRRLSDSSVGSACSDSESNASSINMIARHSDKTETTSATSSDPYGPSPSMRSVGSGTANSYKSPTPHRRNTTAVTASSSSASNRYGPSSSSSGSYSNNADYSYHPEYSQRSNGSSAPKNQYSPGSQRSFAFSMFNKADKV | not soluble
2 | MAHHHHHHMLRFTHRALARKAAVKAGSRTSAAAGATAALHAAPAAPQNAVSIPPIPGVRSVRAFRTQKMEALQPQPAAATAGRKAFAAKGSKHVKAALKSRPSKKVKLPKKAAAPSRAQQAQQVKHAKQLKAPKSAAKEISKKAKTAKARK | soluble
3 | MAHHHHHHMSQEEILQQTTGPSVPGKGVIVDDGTMEDIIDKLRILRYEKDFCPRVKPPFKPLSKYYFSGPSSIDNPNAQFHYFTSLCSWLMGLAGHNFEPPGQFDDPNATSTNILGELRAMNISAPNLAPNRIRQGNGEAVLTILSVLSDHALLKKGFTVRSVDYTNVEKYDELDGVTDADDDNGIGEEVEDNVMIESDDEEELYVRATGERLVKEDAGVPLESEINAEEWNLEVERVGPLLQVRSDALQDWRSRIESAGVLLRAVEKMYPEVKADASTCGG | not soluble
4 | MSLAEFIYTMRKVRKAHGDKVILDDVNLNFLPGAKIGVVGPNGAGKSSVLRIMAGLDTPNNGDAYLAPGASVGILQQEPHLDETKTVRENVEEGVPIKGKLNRYNEVAELMATDYSDELMEEMGRLQEELDAADAWDIDSQLEQAMDALRCPPPDEPVTHLSGGERRRVALCKLLLSKPDLLLLDEPTNHLDAESVLWLEQHLASYKGAILAVTHDRYFLDNVAEWILELDRGRAYPYEGNYSTYLEKKAERLEVQGKKDQKLQKRLKEELAWVRSGAKARQAKNKARLGRYEEMAAEAEKSRKLDFEEIQIPTPPRLGNVVVEVEHLDKGFEGRTLIKDLSFTLPRNGIVGVIGPNGVGKTTLFKTIVGLEQPDSGVVRVGDTVKLSYVDQNRAGIDPKKNVWEVVSDGLDYIEVGQNEIPSRAYVSAFGFKGPDQQKPAGVLSGGERNRLNLALTLKEGGNLILLDEPTNDLDVETLSSLEHALEQFPGCAVVISHDRWFLDRTCTHILAWEGDDDNEAKWFWFEGEGHHHHHH | soluble
5 | MFSSIGWPEIFTVLILGLIIIGPERLPKVIEDVRAAIYAAKKAINNAKEELNGNLGAEFDEFREPINKIASIQRMGPKAVLTKALFDEDENFMDNFDPKKIMASGTEGEAYRERGINPQPAGDSASPQTPSNKESQPKAGFSWDDIT | not soluble
6 | NAVHFGAGNIGRGFIGKLLADAEVEVTFADVDVPLVDQLSHKQEYKVKVVGTECKIDTVTHVTAVNSASEDVIDRIVKTDLVTTAVGPNVLDIIAKTIAKGIAKRFEAGNDAPLNIIACENMVRGTTHLKGEVYKHLDKSLHAKADELVGFVDSAVDRIVPPAEAANDDPLEVTVESFSEWIVDEQQFKGDIPNIAGMEKTNN | soluble
7 | MSLSSFEGKVAVITGAGSGIGRALALNLSEKRAKLALSDVDTDGLAKTVRLAQALGAQVKSDRLDVAEREAVLAHADAVVAHFGTVHQVYNNAGIAYNGNVDKSEFKDIERIIDVDFWGVVNGTKAFLPHVIASGDGHIVNISSLFGLIAVPGQSAYNAAKFAVRGFTEALRQEMLVARHPVKVTCVHPGGIKTAVARNATVADGEDQQTFAEFFDRRLALHSPEMAAKTIVNGVAKGQARVVVGLEAKAVDVLARIMGSSYQREGHHHHHH | not soluble
8 | MKAHVLFSGGKDSSLSAIILHNLGYEIQLVTVNFGVLDSYLHAEETAKIIGYSHKVELIDKELIEKSVDMILKDGYPGNGIQFVHKQVLEIISEKYDVIADGTRRDDRVPRLDHSELQSLEMRKNIQYVTPLMGFGHKTLRNLVNNYFIISEKESEELLKSDYETEIRELIRQRGIDPLEYFPKHIQSRVIGLKR | not soluble
9 | MGSDKIHHHHHHMLRGINRQIIFEDDEDYQNFMGTIKETQEKSGYEVYAYCLMSNHVHLLLKEVTEDLGIAFRRIGAIYVYWYNWKYSRRGHLFQARYKSEAVETDSYFLTVLRYIHQNPYKAGIVKNIADYPWSSYGEYVGEPRICDVEFGLNMFSTNRTNAVKLFEEFNLAENQDQCLDYNQDVRLNDTEASNFIRSISDVQSPTEIQGFEKDKRNEVIKKCKSKGLSIRQIERLTGVSFGVIRTI | not soluble
10 | MASEMKFAWLLAPDTYWDEKKTFITAALESGIDHIVDTADSGRIKKLGNLTLISPDEDADIVLVGRDGEGDGTLELPETLEYSRDIEMASELSESGRQVAAYVEIRSKAHEELARRLGRVVDYLILVGEDWKIIPLENIIADLQEEDVKLIAAVADVDEARVALETLEHGTDGVLIEPADISQIKDIAALLENIESETYELKPATITRIEPIGSGDRVCVDTCSIMGIGEGMLVGSYSQGLFLVHSESLESEYVASRPFRVNAGPVQAYVMVPGGRTRYLSELETGDEVIIVDRDGRSRSAIVGRVKIEKRPLMLVEAEYEGMKVRTLLQNAETIRLVNDKGEPVSVSELGEGDRVLVYFDESARHFGMAIKETIIEKLEHHHHHH | soluble
11 | GTDQYTLLANRVQNAVEARQSATEAERRRHRLEQILKTVPSCVVQLDRDGQFVFANQRAIDVLGLSQSELKDRLYNDPEWEIRDLDGHPIPDAELPFRQVLETGQPLSDARHTIHWPDGTEKVLSVNGAPLFDDD | not soluble
12 | MGSDKIHHHHHHMQILIYSYNYHPEPIGIAPLMTELAEGLVKRGHQVRVITGMPNYPQRQIYDRYRGKLYVTEQKNGVKIQRSYLRIKSKPNLIDRLLLELSFVFTSLPQALKGERPDVILLTIPPLLVCLPATLIGWLYNCPVVLNVQDILPEAGVRVGLIKNKLMIQALEALEKFAYRTAHTISVIADGFVDNLINKGVPANKIACIPNWVNLNFIRPLPKVNNSWRATHQLDGKFVVLYSGNIALTQGLETVIEAAARLRHLKEIIFVVAGESQALERLQKHCLACGADNVLLLTLQAREKLPQMLAAADVGLIVQKCNVISFNMPSKIPLLLASGRPIVGSVPALGTAAKAIRESGGGVIVEPESAGALAAAVLDLYHQPELAAQLGCKGRKFAVENYSFEQALDRYEELFADAIAKRATNLDILPEMSSKQSLVDI | not soluble
13 | MGSDKIHHHHHHMSPHDAKSVIRRFVKEVLNDKNLAVIDEICPPDYVELDPLPGQGPGAAGLKAFLGESFFKAFPDLVWVNEEMVAEGEYVMARSTWTGTHRGEFLGIPPTHRAVKVAAWTIDHVVDGKFVDSRILVDALSLLQQLGALPAWPPPPKTFQAMVDAAYRSVPTIKAADLHRRLKREPDLLIIDVRDAAEVAQTGAIPGAINLSYGTLTYAADHTAPEDWRDPRLADHARPIVTTCGLGPLGALGGGLLHEMGFTNVQILEGGVQAWIDAGLPVVKPGDQ | not soluble
14 | TFGKDNIKSKVILFSIEKPSKEVAEKLEMQDDYIYRIIRMREVGHKAYSIEHTYMPLAIIPGLEPHHLEDSIYNYIRDDLKLKMQSAHVWVRGDKSNQEDSKLLDLEEPTFMMEIEKLAHLEDGRVFEYSITRHTYESFV | not soluble
15 | MSYAKVSHWQMASTEQLIIPPNNDPRPDDQLVIVVVTADGIASPIPLNVSRREVIRQVEMLNRNLTAANRGDNYQGQASQLYDWFIKPIKLILENKKIENISFILDRGLRSLPMATMYDRQSGQYLIEDYSVGLMPSLSLTNRDYAPLTGAQILAMGAEEFANQNPLPAAAVEVDTITNQLWRGSAFLNDRFTVDNFVQSLATKEYRLVHLATHGEFLPGNRNNSFVVFSDRSLDLDEFANVGLDKPIDLMVLSACRTAVGDFDAELGFAGLAVKTGVKTAIGSLWYVSDEATFALMTSFYDRLQPAPIKAKALQQAQLSLLRGEIRVVDGNLVLGDGTNISLADLPADIRQRLATQDLSHPYFWSGFTLVGSPWLEHHHHHH | not soluble
16 | MNLPDGTQLVVGRQLAKVKSNQNWIRIPEYKVRGNKVIISHLWVGSINMPRRPFWSFRELWEKHLGRKDAINVWSRIRSYNTQVLLKILELLEKEPETQAKKLVKRATMHQLRNIAESFEEL | not soluble
17 | FFSNAEVAERLAYPQLIEALRIGLAKPCSAPLRNCHALPAQASLLQMPVWQAGAGIGVKLVTVFPGNGARGLPAVAAVFALFDGEDGRPLALLEASELTARRTACSSALAADYLARDDARRLLVVGCGTLAAHMVRAHACVRDYRHIDIWGRDPAKAAALAARLREEGYPARAADGLRAAVEAADCVSCVTTSREALVRGAWLKPGVHLDLVGAFLPSMRETDVLAVARARVVVDTRAGALEEAGDLLQAIAEGAIGREAISTELRDLLSGAGRRGDPGEITLFKSVGYALEDLVAARRVV | not soluble
18 | MGSDKIHHHHHHMIQYKRCSEVSIDLVYEAFRDGFSDYIIKMEVSKEDFIKRFFGAEGNSLKHSFVALDGNKSVGVILGGIKDYENIKTMRCGTLAVHPNYRGIGVSQKLFELHKDEAIQNGCKQLFLEVIVGNDRAIRFYNKLGYEKVYDLSYYNLKDMTKIIHKECKGIEVKQLEFPAFKVEIQKWLHFHINWQNDMDYIEKTNHTFYGAYVDNDLKGSICINEQGKISFIFIDKEYRNRGIGSKLLQVARDELNLESLLISFPNNSLLEGFLKKTGFEKNSLAQYEMYVLL | not soluble
19 | MGSDKIHHHHHHMRIEVVNVSHIFHRGTPLEKKALENVSLVINEGECLLVAGNTGSGKSTLLQIVAGLIEPTSGDVLYDGERKKGYEIRRNIGIAFQYPEDQFFAERVFDEVAFAVKNFYPDRDPVPLVKKAMEFVGLDFDSFKDRVPFFLSGGEKRRVAIASVIVHEPDILILDEPLVGLDREGKTDLLRIVEKWKTLGKTVILISHDIETVINHVDRVVVLEKGKKVFDGTRMEFLEKYDPRFFTSKMLVMRRLVLKGEDPFSMSDDELLERVCNS | not soluble
20 | MSLKTGTTLEKLAQVKTVAFDKTGTITQGKLVVDQVVPQGSQSADRLLQLAASAEQHSSHVLAQSLVAANRLPLLTATNVTETTAQGVVATINGQQVRAGKAAFVTSESITKPDQTAVYVAVDDVYQGYVSFNDRVRPEAATTMTRLRQAGVAHLMMISGDRQPIAEQIAQEVGLDQVHAECLPAGKIAVLDQLAANQRPVAMVGDGINDAPSLATADVGIAMGAHGATAASESADAVVLKDDLTRVSTARVIAQDTMRVARQSEGHHHHHH | soluble
21 | MSEFKSKLESETLDFLCDAILTLENREECYRFFDDIFTINEIKTIEQRLQVAKMLKEKHTYSDISAETGASTATISRVNRCINYGSDGYNIVLRRLEK | not soluble
